Biological target: T1, ElaB (E. coli, UniProt P0AEH5 1-101)
T1 construct: ElaB, E. coli, paralogue of YqjD, inner membrane-associated; source: endogenous, E. coli (MG1665) lysate, log phase and stationary phase
T1 sequence (looked up): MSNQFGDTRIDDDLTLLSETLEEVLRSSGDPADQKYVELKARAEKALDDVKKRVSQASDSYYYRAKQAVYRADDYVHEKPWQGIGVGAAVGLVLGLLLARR
Experiment: cross-linking; quantitative CXMS: log phase and stationary phase E. coli (MG1665) lysates (100 µg each, 50 mM HEPES pH 8.0, 150 mM NaCl) cross-linked with [d0]-/[d6]-bAL2 at RT for 1 hr, forward and reverse labelling; pLink, pQuant
Settings: partners not purified

B1: YqjD (natural protein, E. coli, UniProt P64581 1-101, looked up)
chain: MSKEHTTEHLRAELKSLSDTLEEVLSSSGEKSKEELSKIRSKAEQALKQSRYRLGETGDAIAKQTRVAAARADEYVRENPWTGVGIGAAIGVVLGVLLSRR
notes: source: endogenous, E. coli (MG1665) lysate, log phase and stationary phase
B1 was tested, and the “fold increase of the cross-link in the stationary phase over the log phase” value was at least 10 fold.

From paper PMC4811778 (eLife, 2016)
